For 18 sequences, protein production results are on record in a protein production outcome set (Wang et al. 2014).

The data set is described as follows: label from the status in PepcDB records.

For the sequence “SAGTGVVAVYGEGAMTETKQKSPFSVKVGLAQMLRGGVIMDVVNAEQARIAEEAGACAVMALERVPADIRAQGGVARMSDPEMIKEIKNAVTIPVMAKARIGHFVEAQILEAIGVDYVDESEVLTLADEDNHINKHNFKIPFVCGCRNLGEALRRIREGAAMIRTKGEAGTGNVVEAVRHVRSVNGAIRLLRSMDDDEVFTYAKKIAAPYDLVVQTKELGRLPVVQFAAGGVATPADAALMMQLGCDGVFVGSGVFKSGDPVKRAKAIVQAVTNYRDAAVLAEVSCGLGEAMVGLNLDDKVERFASRSE”, the protein production result is “not failed”.

Take “SATHGQTCARPMCIPPSYADLGKAARDIFNKGFGFGLVKLDVKTKSCSGVEFSTSGSSNTDTGKVTGTLETKYKWCEYGLTFTEKWNTDNTLGTEIAIEDQICQGLKLTFDTTFSPNTGKKSGKIKSSYKRECINLGCDVDFDFAGPAIHGSAVFGYEGWLAGYQMTFDSAKSKLTRNNFAVGYRTGDFQLHTNVNDGTEFGGSIYQKVCEDLDTSVNLAWTSGTNCTRFGIAAKYQLDPTASISAKVNNSSLIGVGYTQTLRPGVKLTLSALVDGKSINAGGHKVGLALELEA”: the protein production result is “not failed”.

For “SAVLVALSLAGLPTDRFFFDGFLPSKQGARRARLGELAAIDATLVLFEAGSRIQNSVHDLADLLGATREAAICRELTKLHQEVRRATLAELAAQADTMETRGEFVVVIAP”, the protein production entry is on record as “failed”.

On to “SDDINQKVAEQLAQKAQSSSLGYDIVESLTVEVGPRLAGSEQDKVAVDWAIAKLQSLGFDRVYKEPVTVPVWRRGIAKASILSPFPQPLVVTALGGSIATPAQGLSATIVRFDTLQDLQNAEAGSLNDKIAFIDAKTERHRDGKGYGQTASGRSRGAVAAAEKGAVGIIIRSIGTDHDRMAHTGMMRYEEGVTAIPAAAISNPDADLINAMLKRDKEVVISLELGSERRGETTSYNVIAEVKGSTKADEIVLIGAHLDSWDEGTGAIDDGAGVAIVTAAAKHILDLPQKPERTIRVVLYAAEELGLLGGKTYAKEHEAELEKHYIAAESDFGAGPIYQIDWRVADTAHSPVINAMKVAEPLGVAAGNNKASGGPDVSMLPALGVPVASLRQDGSDYFDYHHTPNDTLDKINPEALAQNVAVYAQFAWVMANSKVELRPLPPKE”, for which the protein production entry is “not failed”.

Turning to “SDMVAQALELSRKPHVVIATPGRLADHLRSSNTFSIKKIRFLVMDEADRLLEQGCTDFTVDLEAILAAVPARRQTLLFSATLTDTLRELQGLATNQPFFWEAQAPVSTVEQLDQRYLLVPEKVKDAYLVHLIQRFQDEHEDWSIIIFTNTCKTCQILCMMLRKFSFPTVALHSMMKQKERFAALAKFKSSIYRILIATDVASRGADQPPLPPGAWTSLRYRWSSTTTPPGSPRSTSTESAGRPVQGGRVRPSRW”, the protein production entry is given as “not failed”.

Consider “SDPDADRVGIACKNDKGEWVLINGNQTCLMYLYYIITQYNKLGKMTGNEFCVKTIVTTELIKKIADKNHIEMLDCYTGFKWIAREIRLREGKKKYIGGGEESYGFLAEDFVRDKDAVSACCLIAEVAAWAKDNGKTLYQLLMDIYVEYGFSKE”, for which the protein production entry was “failed”.

With “SDSPEQESADDALKRIVDGFQHFRREVFPEQQALFKKLANSQRPRAMFITCADSRIVPELITQSSPGDLFVTRNVGNVVPPYGQMNGGVSTAIEYAVLALGVHHIIVCGHSDCGAMRAVLDPQTLERMPTVKAWLRHAEVARTVVADNCDCGASHDTLGVLTEENVVAQLDHLRTHPSVASRLASGQLFIHGWVYDIESAQIRAYDAKQGRFLPLDGEHPVPMATPAPRYLSS”, the protein production entry is listed as “failed”.

Take “SEITVSEFLLDFLNKYSENISLATYNNYVSICKNYINPSIGKYKIQDLHPVHIQNYIDKLSYKLNPQSIKIHINILKLAIKRAYRLKLIKENVMDSIKAP”: the protein production entry is on record as “failed”.

Take “SEKLAASTEPQGPRPVLGRESVQVPDDQDFRSFRSECEAEVGWNLTYSRAGVSVWVQAVEMDRTLHKIKCRMECCDVPAETLYDVLHDIEYRKKWDSNVIETFDIARLTVNADVGYYSWRCPKPLKNRDVITLRSWLPMGADYIIMNYSVKHPKYPPRKDLVRAVSIQTGYLIQSTGPKSCVITYLAQVDPKGSLPKWVVNKSSQFLAPKAMKKMYKACLKYPEWKQKHLPHFKPWLHPEQSPLPSLALSELSVQHADSLENIDESAVAESREERMGGAGGEGSDDDTSLT”: the protein production entry is given as “not failed”.

“SELKPTAPPIFTGRPFVVAWDVPTQDCGPRLKVPLDLNAFDVQASPNEGFVNQNITIFYRDRLGLYPRFDSAGRSVHGGVPQNVSLWAHRKMLQKRVEHYIRTQESAGLAVIDWEDWRPVWVRNWQDKDVYRRLSRQLVASRHPDWPPDRIVKQAQYEFEFAAQQFMLETLRYVKAVRPRHLWGFYLFPDCYNHDYVQNWESYTGRCPDVEVARNDQLAWLWAESTALFPSVYLDETLASSRHGRNFVSFRVQEALRVARTHHANHALPVYVFTRPTYSRRLTGLSEMDLISTIGESAALGAAGVILWGDAGYTTSTETCQYLKDYLTRLLVPYVVNVSWATQYCSRAQCHGHGRCVRRNPSASTFLHLSTNSFRLVPGHAPGEPQLRPVGELSWADIDHLQTHFRCQCYLGWSGEQCQWDHRQAAGGASEAWAGSHLTSLLALAALAFTWTL”: the protein production entry is “failed”.

Turning to “SERYAAALEEVADGARQQERHYQLLSALQSLVKELPSSFQQRLSYTTLSDLALALLDGTVFEIVQGLLEIQHLTEKSLYNQRLRLQNEHRVLRQALRQKHQEAQQACRPHNLPVVQAAQQRELEAVEHRIREEQRAMDQKIILELDRKVADQQSTLEKAGVAGFYVTTNPQELMLQMNLLELIRKLQQRGCRAGNAALGLGGPWQSPAAQCDQKGSPVPP”, the protein production result was “not failed”.

As for “SEYKFAKFAATYFQGTTTHSYTRRPLKQPLLYHDDEGDQLAALAVWITILRFMGDLPEPKYHTAMSDGSEKIPVMTKIYETLGKKTYKRELQALQGEGEAQLPEGQKKSSVR”, the protein production entry is listed as “failed”.

For “SFRVVLDPGHGGIDGGARGVTGILEKDVTLAFARALRDELQKGSHTIVALTRDSDIFLRLSERVKKAQEFDADLFISIHADTIDVHSLRGATVYTISDEASDAIAKSLAESENKVDLLDGLPKEESLELTDILLDLTRRETHAFSINFANNVVSNLSKSHINLINNPHRYADFQVLKAPDVPSVLIEIGYLSNKEDEKLLNNPQWRKQMAASIAYSIRQFAEYRQKIMQPL”, the protein production result is given as “not failed”.

For “SGLAQPQIAAVVAAPKKPEPAKAPKAPKSKSEKENKPVVAARKANAPVAKNASPVKGGKGPAGGDVGRPKNPTANGANNQGRFNNNQRYGNKESNGEFGNELPQRQFNNRDNRGPPRVRTGEKFG”, the protein production entry is “failed”.

In the case of “SIAILVIMHGESTASSMVNVANTLLDCNHAVAINMGLEDRVQDILVQAVEIANKIDKGKGILILTDMGSILTFAKVIRDATGKEVKAIDMVSTPIVIEATRKALTPEMTLEKLYFNIIESIKKHYGDMEVTYAEK”, the protein production entry is on record as “failed”.

“SIAILVIMHGESTASSMVNVANTLLDCNHAVAINMGLEDRVQDILVQAVEIANKIDKGKGILILTDMGSILTFAKVIRDATGKEVKAIDMVSTPIVIEATRKALTPEMTLEKLYFNIIESIKKHYGDMEVTYAEKDNGGRY”: the protein production entry is “not failed”.

With “SIDSKLQTLGEQLMQGKRGAIVMIEPETGEVLCLVSSPSYDPSLLAGKDRGKNHLEMEHDRNKPLYARAIQATYPPGSTFKPAQGAIFLQEGVIRPTDAFSCYHGFPPLNNRPACHSHGSPLSLVPALATSCNAFFCWGLRAMLDNRRFYPSVQEAFEHWKNRIVGLGFGYRLGLDLPGERRGYIPNSKVYDKAYKGRWNSSTIISISIGQGEILATPLQIANLGVIIANRGRYRRPHVVKAIQGIPLDTAYTNWQNSGISPANMEYIVEGMARAVTGGTCHAANFAPGEIEVCGKTGTAENPHGKDHSAFLGFAPRNNPKVVVSVYVENGGFGAVYGVPIGRVMMEYYLREGKLSPEGEAVATKMSNTAIHYSNVF”, the protein production entry is listed as “failed”.

With “SISTHESQKLREYYRLLNLDEGCSVDDVRESFHKLARQYHPDSGSSDADSATFIKIEEAYRNVLSHAIKRMHAGQDKAEDAAEDEEEGKFKYNTPQHRHYLSFEGVGFGTPSQREKQYRQFRADRATEQVMEYQRQKLQREFFANSITVKDVRQSKQQKITQAIERLVEDLIQESMAKGDFDNLSGKGKPLKKFSGCSYIDPMTHNLNRILIDNGYQPEWILMQKEIKDTIEQLREALLMSRKKLGNPLSPTEQKQWAQVCEQFQEKIRKLNKRINDFNLIVPILTRQKVHFDAQKEIIRVQEMYGAFVEANEVTEENQTDVSQGEESKTPRVKAGFLNWLNLWKSIKI”, the protein production entry is on record as “failed”.
